T1: Sec61-CPLV (S. cerevisiae)
T1 sequence (P32915 whole entry, looked up): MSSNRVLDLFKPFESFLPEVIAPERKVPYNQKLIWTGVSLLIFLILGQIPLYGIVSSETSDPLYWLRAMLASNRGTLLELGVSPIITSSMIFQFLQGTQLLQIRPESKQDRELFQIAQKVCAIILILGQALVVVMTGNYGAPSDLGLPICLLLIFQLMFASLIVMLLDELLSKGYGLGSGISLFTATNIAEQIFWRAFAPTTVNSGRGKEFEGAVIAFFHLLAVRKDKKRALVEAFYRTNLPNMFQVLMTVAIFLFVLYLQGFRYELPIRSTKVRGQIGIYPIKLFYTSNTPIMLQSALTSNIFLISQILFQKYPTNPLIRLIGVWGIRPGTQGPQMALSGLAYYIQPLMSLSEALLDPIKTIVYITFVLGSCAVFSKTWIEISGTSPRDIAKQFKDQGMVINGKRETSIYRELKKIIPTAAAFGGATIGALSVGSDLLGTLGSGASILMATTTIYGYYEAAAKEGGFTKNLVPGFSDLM

T2: Ssh1-CPLV (S. cerevisiae)
T2 sequence (P38353 whole entry, looked up): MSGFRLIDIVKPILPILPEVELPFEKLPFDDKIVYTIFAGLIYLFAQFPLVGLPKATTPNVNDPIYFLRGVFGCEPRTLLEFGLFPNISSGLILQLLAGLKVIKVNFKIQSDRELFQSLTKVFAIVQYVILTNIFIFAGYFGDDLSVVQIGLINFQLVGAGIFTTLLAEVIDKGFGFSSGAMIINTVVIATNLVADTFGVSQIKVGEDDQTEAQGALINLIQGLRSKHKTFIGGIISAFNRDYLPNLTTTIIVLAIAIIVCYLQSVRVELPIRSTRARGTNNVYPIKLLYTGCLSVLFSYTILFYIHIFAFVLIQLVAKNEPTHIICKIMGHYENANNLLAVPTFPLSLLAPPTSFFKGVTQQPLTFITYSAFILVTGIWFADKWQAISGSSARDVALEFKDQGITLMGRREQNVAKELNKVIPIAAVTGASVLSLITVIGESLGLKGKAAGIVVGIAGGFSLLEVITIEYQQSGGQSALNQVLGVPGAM


Tests used:
[1] = target: T1, Sec61-CPLV (S. cerevisiae); assay: two-hybrid; split-ubiquitin, liquid beta-galactosidase assay (ONPG) on cell lysates, 30°C for 180 min, mean of 6 samples
[2] = target: T2, Ssh1-CPLV (S. cerevisiae); assay: as above
[3] = target: T1, Sec61-CPLV (S. cerevisiae); assay: split reporter (BiFC, NanoBiT); split-ubiquitin, cleavage of PLV from the bait read by quantitative immunoblot of cell lysates with anti-PLV and 125I-Protein A; ratio of cleaved PLV to Arf1p
[4] = target: T2, Ssh1-CPLV (S. cerevisiae); assay: as above

Row | beta-galactosidase units [1] | beta-galactosidase units [2] | cleaved PLV relative to Arf1p (arbitrary units) [3] | cleaved PLV relative to Arf1p (arbitrary units) [4] | Binder
1 | 6 U | 0.55 U | 15 | 7.1 | Nub-Sss1p (natural protein) MARASEKGEEKKQSNNQVEKLVEAPVEFVREGTQFLAKCKKPDLKEYTKIVKAVGIGFIAVGIIGYAIKLIHIPIRYVIV
2 | – | – | 6.6 | – | Nub-Sec62p (natural protein) MSAVGPGSNAGASVNGGSATAIATLLRNHKELKQRQGLFQAKQTDFFRYKRFVRALHSEEYANKSARQPEIYPTIPSNKIEDQLKSREIFIQLIKAQMVIPVKKLHSQECKEHGLKPSKDFPHLIVSNKAQLEADEYFVWNYNPRTYMDYLIVIGVVSIILALVCYPLWPRSMRRGSYYVSLGAFGILAGFFAVAILRLILYVLSLIVYKDVGGFWIFPNLFEDCGVLESFKPLYGFGEKDTYSYKKKLKRMKKKQAKRESNKKKAINEKAEQN

Continued, binder first:

Row | Binder | beta-galactosidase units [1] | beta-galactosidase units [2] | cleaved PLV relative to Arf1p (arbitrary units) [3] | cleaved PLV relative to Arf1p (arbitrary units) [4]
3 | Nub-Sbh2p (natural protein) MAASVPPGGQRILQKRRQAQSIKEKQAKQTPTSTRQAGYGGSSSSILKLYTDEANGFRVDSLVVLFLSVGFIFSVIALHLLTKFTHII | 0.28 U | 0.45 U | 9.6 | 7.2
4 | Nub-Sbh1p (natural protein) MSSPTPPGGQRTLQKRKQGSSQKVAASAPKKNTNSNNSILKIYSDEATGLRVDPLVVLFLAVGFIFSVVALHVISKVAGKLF | 9.8 U | 0.43 U | 18 | 7.1
